In patent publication US20130190246A1 (PURDUE RESEARCH FOUNDATION, published 2013):
Where no end group is shown, it is not given here. The star is where a group is joined. Dansyl = CN(C)c1cccc2c(S(=O)(=O)*)cccc12

Assays:
[1] = molecular target: collagen (type and supplier not stated; Examples 11 and 12); assay: fluorescence plate assay, collagen-coated wells, binding curve from the data of FIG. 4
Method: (§1) Binding assays were done in a 96-well high-binding plate, black with a clear bottom (Costar). Collagen was compared to untreated wells and BSA coated wells. Collagen and BSA were immobilized at 37° C. for 1 hr by incubating 90 μL/well at concentrations of 2 mg/mL in 10 mM HCl and 1×PBS, respectively. Each well was washed 3× with 1×PBS after incubating. Z-SILY was dissolved in 1×PBS at concentrations from 100 μM to 10 nM in 10-fold dilutions. Wells were incubated for 30 min at 37° C. and rinsed 3× with PBS and then filled with 90 μL of 1×PBS. Fluorescence readings were taken on an M5 Spectramax Spectrophotometer (Molecular Devices) at excitation/emission wavelengths of 335 nm/490 nm respectively.

[2] = molecular target: collagen (type and supplier not stated; Examples 11 and 12); assay: fluorescence plate binding assay, dansyl label, collagen coated on 96-well plate
Method: as §1

B1: Dansyl-GRRANAALKAGELYKSILYGC (Z-SILY) (peptide)
peptide: Dansyl-GRRANAALKAGELYKSILYGC
notes: Fluorescently labelled version of SILY; also called dansyl-modified peptide SILY
In the case of B1, the “EC50 (read off the curve)” value [1] is reported as roughly 900 nM and the Kd [2] is reported as 860 nM.
